Literature values as cited in PMC6116012.

Legend:
[1] = biological target: PAF15 (Homo sapiens) (UniProt Q15004)
[2] = biological target: PAF15 extended PIP-box peptide PIP-box (Homo sapiens) (UniProt Q15004)
[3] = biological target: FEN1 (Homo sapiens) (UniProt P39748)
UniProt P39748, sequence (P39748 whole entry): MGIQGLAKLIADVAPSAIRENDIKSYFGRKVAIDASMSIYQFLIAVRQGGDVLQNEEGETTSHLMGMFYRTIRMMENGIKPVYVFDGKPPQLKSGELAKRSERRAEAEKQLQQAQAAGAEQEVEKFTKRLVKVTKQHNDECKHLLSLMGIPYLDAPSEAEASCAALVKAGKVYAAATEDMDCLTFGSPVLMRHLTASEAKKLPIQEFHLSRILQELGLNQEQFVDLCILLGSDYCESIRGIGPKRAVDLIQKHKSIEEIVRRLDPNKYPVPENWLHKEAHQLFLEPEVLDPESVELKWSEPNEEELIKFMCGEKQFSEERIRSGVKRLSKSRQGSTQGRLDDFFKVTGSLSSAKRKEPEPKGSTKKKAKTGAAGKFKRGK

## PCNA (from UniProt P12004)
[1]
  Kd: 1100 nM
[2]
  Kd: 5.6 µM
[3]
  Kd: 60 nM
